Test results reported in US20050064518A1 (PURDUE PHARMA L P, published 2005).

T1: O772P 3-repeat recombinant protein (human)
T1 construct: Repeats are residues 14-452 of the entry
T1 chain: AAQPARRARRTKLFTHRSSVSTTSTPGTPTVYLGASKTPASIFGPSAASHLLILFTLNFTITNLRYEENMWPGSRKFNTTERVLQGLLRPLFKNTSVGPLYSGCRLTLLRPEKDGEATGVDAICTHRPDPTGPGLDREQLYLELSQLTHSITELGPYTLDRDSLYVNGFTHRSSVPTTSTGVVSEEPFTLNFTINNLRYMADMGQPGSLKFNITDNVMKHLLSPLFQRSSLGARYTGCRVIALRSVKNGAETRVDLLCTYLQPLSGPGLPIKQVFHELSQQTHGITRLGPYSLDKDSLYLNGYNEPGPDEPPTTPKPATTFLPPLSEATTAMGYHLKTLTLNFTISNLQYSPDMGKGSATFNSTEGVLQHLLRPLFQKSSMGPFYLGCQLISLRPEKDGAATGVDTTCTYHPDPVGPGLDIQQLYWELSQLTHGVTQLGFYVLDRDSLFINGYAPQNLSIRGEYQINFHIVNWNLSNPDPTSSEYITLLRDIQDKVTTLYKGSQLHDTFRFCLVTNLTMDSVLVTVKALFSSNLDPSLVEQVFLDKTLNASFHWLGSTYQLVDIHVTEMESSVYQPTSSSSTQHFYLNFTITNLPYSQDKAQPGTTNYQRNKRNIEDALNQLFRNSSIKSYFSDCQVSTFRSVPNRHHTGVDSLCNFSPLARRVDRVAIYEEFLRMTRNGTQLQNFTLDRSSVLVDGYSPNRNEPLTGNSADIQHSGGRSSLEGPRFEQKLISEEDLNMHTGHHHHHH

B1: monoclonal antibody 117.1 (antibody, V domains shown)
VH: QVTLKESGPGILQPSQTLSLTCSFSGFSLSTPGMGVGWIRQPSGKGLEWLAHIWWDDFKRDNPALKSRLTISKDTSSSQVFLKIASVDTADTATYYCVRVDGNFLSWYFDVWGAGTTVTVSS
VL: DAVMTQTPLSLPVSLGDQASISCRSSQSLVHSNGNTYLHWYLQKPGQSPKLLIYKVSNRFSGVPDRFSGSGSGTDFTLRISRVEAEDLGVYFCSQSRYVPWTFGGGTKLEIK
notes: Murine hybridoma antibody
B2: monoclonal antibody 368.1 (antibody, V domains shown)
VH: EVQLQQSGPELVRTGASVKISCKASGYSFTGFYMHWVKQSLGKSLEWIGYVSCYTGATTYTQKFKGKATFTVDTSSSTAYMQLNSLTSEDSAVYYCAREGDYYSMDFWGQGTSVTVSS
VL: DVVMTQTPLSLPVSLGDQASISCRSSQSLERTNGNTYLHWYLQKPGQSPKLLIYKVSSRFSGVPDRFSGSGSGTDFTLKISRVEAEDLGIYFCSQTTHGPPTCGGGTKLEIK
notes: Murine hybridoma antibody
B3: monoclonal antibody 501.1 (antibody, V domains shown)
VH: QIQLVQSGPELKKPGETVQISCKASGYIFTDYGMNWVKQAPGKGLKWMGCINTYTGETIYSDDFRGRFAISLETSASTAFIQINNLKNEDAATYFCARGNYRDAIDYWGQGTSVTVSS
VL: DIKMTQSPSSIYASLGERVTITCKASQDIKSYLSWYQQKPWKSPKTLIYYATTLADGVPSRFSGSGSGQDYSLIINSLESDDIATYFCLHHDESPFTFGSGTKLEI
notes: Murine hybridoma antibody

Target: T1, O772P 3-repeat recombinant protein
Assay: ELISA, plate-bound O772P 3-repeat
Experimental: On the next day, the plates were washed with 200 μl 1×PBST (1× phosphate-buffered saline (PBS), 0.05% Tween 20) three times and blocked with 100 μl of 1×PBST containing 1% bovine serum albumin (BSA) for 2 hours at 37° C. […] After 1 hour incubation at 37° C., the plates were then washed with 1×PBST three times. For signal detection, 100 μl of HRP (horseradish peroxidase)-conjugated sheep anti-mouse IgG (1:2000 dilution into 1×PBST+1% BSA; Amersham Biosciences) was added to each well and incubated for 1 hour at 37° C. The plates were again washed three times with 1×PBST. Finally, 100 μl¹ of a mixture of TMB (3,3′, 5,5′-tetramethylbenzidine) substrate and H₂O₂ (1:1 ratio, KPL Kirkguard Perry Laboratories) was added into each well and after a 5 minute incubation, the absorbance was measured at 405 nm with a plate reader (Molecular Devices Corp., Sunnyvale, Calif.). The assay was done in triplicate for each selected O772P hybridoma-produced antibody and data was collected and analyzed as a kinetic assay, measured over a 5 minute time period. Average values were calculated and presented. Controls for blank and individual reagents were also included in each experiment.

absorbance (OD) | absorbance (OD)/µg Ab | Binder
0.619 OD | 15 OD/µg Ab | B1
1.29 OD | 32 OD/µg Ab | B2
0.856 OD | 21 OD/µg Ab | B3

The binders below were run against T2, CA 125/O772P on OVCAR-3 cells (human, UniProt Q8WXI7 1-14507) (assay: flow cytometry, OVCAR-3 cells; Ab 2 µg/ml).
T2 construct: whole, on cells

% positive cells | Binder
93% | B1
89% | B2
95% | B3

Target: T1, O772P 3-repeat recombinant protein
Assay: BIAcore SPR, O772P 3-repeat immobilized, mAb injected
Experimental: A […] BIAcore biosensor chip was docked into the BIAcore X instrument and activated with 55 μl of 1:1 NHS/EDC at room temperature. O772P 3-repeat region protein and BSA at 10 μg/ml in 0.05 M acetate buffer, pH 4.5, were immobilized onto the flow cell (FC) 1 and FC2 of the activated chip, respectively, at a flow rate of 5 μl/min to achieve a resonance response of 1000-2000 RU. The chip was then blocked by injection of 55 μl of ethanolamine-HCl, pH 8.5, and followed with washing 5 times with 50 mM NaOH-1 M NaCl. To measure the binding of anti-0722P mAbs to the O772P 3-repeat region immobilized to the chip, 30 μl of anti-0722P mAbs at varying concentrations in BIAcore running buffer (HBS-EP, Cat. #1001-080, BIAcore, Piscataway, N.J.) were injected over the sensor surface at a flow rate of 5 μl/min. Following completion of the injection phase, dissociation was monitored in BIAcore running buffer at the same flow rate for 360 seconds. The surface was regenerated between injections using 30 μl of 50 mM NaOH-1 M NaCl. Individual sensorgrams were analyzed using BIAevaluation.

Kd | Binder
12 nM | B1
0.7 nM | B2
70 nM | B3

Target: T1, O772P 3-repeat recombinant protein
Assay: ELISA competition, plate-bound O772P 3-repeat; no competitor
Experimental: (§1) On the next day, the plates were washed with 200 μl 1×PBST (1× phosphate-buffered saline (PBS), 0.05% Tween 20) three times and blocked with 100 μl of 1×PBST containing 1% bovine serum albumin (BSA) for 2 hours at 37° C. […] After 1 hour incubation at 37° C., the plates were then washed with 1×PBST three times. For signal detection, 100 μl of HRP-conjugated sheep anti-mouse IgG (1:2000 dilution into 1×PBST+1% BSA, Amersham Biosciences) was added to each well and incubated for 1 hour at 37° C. The plates were washed again with 1×PBST three times. Finally, 100 μl¹ of a mixture of TMB substrate and H₂O₂ (1:1 ratio, KPL) was added into each well and the absorbance was measured at 405 nm with a plate reader (Molecular Devices Corp., Sunnyvale, Calif.). The assay was done in triplicate for each selected antibody and average values were calculated and presented. The percent inhibition compared to no competition was calculated for individual antibodies based on average values. Controls for blank and individual reagents were also included in each experiment.

absorbance | Binder
0.619 OD | B1
1.29 OD | B2
0.856 OD | B3

Target: T1, O772P 3-repeat recombinant protein
Assay: ELISA competition, plate-bound O772P 3-repeat; competitor shed CA 125/O772P
Experimental: as §1

absorbance w/shed CA 125/O772P competitor (25-fold w/w excess) | Binder
0.554 OD | B1
1.33 OD | B2
0.735 OD | B3

Target: T1, O772P 3-repeat recombinant protein
Assay: ELISA competition, plate-bound O772P 3-repeat; competitor soluble O772P 3-repeat
Experimental: as §1

absorbance w/O772P 3-repeat competitor (10 x w/w excess) | Binder
0.071 OD | B1
0.915 OD | B2
0.065 OD | B3
